{"source": "the nanobody polyreactivity screen of Harvey et al. (2022)", "data": [{"experiment": "yeast display, Sf9 membrane polyspecificity reagent, FACS + sequencing; frameworks hold sequencing errors", "outline": "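After 36–48 hours of galactose induction, yeast (Saccharomyces cerevisiae BJ5465) displaying a synthetic nanobody library were stained at 4 °C for 1 hour with 10% biotinylated, detergent-solubilized Sf9 membrane reagent. Streptavidin microbeads enriched the stained cells before FACS sorting into low and high (top ~1%) gates on anti-HA and streptavidin fluorescence. Each clone's polyreactivity label reflects its gate of origin.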", "values": [{"sequence": "QVQLVESGGVLVQAGGSLRITCAASGHIFFYDTMGWYRQAPGKERELVAGITIGGSTNYADSVKGRFTISRDNAKNTVSLQMNSLKPEDTAVYFCNVVKYVYIYSYWEYYYWGQCTQVTVSS", "polyreactivity (PSR sort gate)": "low polyreactivity"}, {"sequence": "QVQLVESGGGLVQAGGSLRLSCAASGLIFYDNVMGWYRQAPVKEREFVAAITSIGGSTYYADSVKGRFTISRDNAKNTVYLQMNSLKPEDTAVYYCNVKSKYYSPNYDYWGQGTQVTVSS", "polyreactivity (PSR sort gate)": "low polyreactivity"}, {"sequence": "QVQLVESCGGLVQAGGSLRLSCAASGITFGRNTMGWYRQAPGKERELVAAIDSGGNTYADSVKGRFTISRDNAKNTVYLQMNSLKPEDTAVYYCAVDGGEFSSYGYWGQGTQVTVSS", "polyreactivity (PSR sort gate)": "low polyreactivity"}, {"sequence": "QVQLVESGGGLVQAGGSLRLSCAASGSIFGFNAMGWYRQARGKERELVAAINNGGSTNYADSVKGRFTISRDNAKNTVYLQMNSLKPEDTAVYYCAARLNYIRRGYWGQGTQVTVSS", "polyreactivity (PSR sort gate)": "high polyreactivity"}, {"sequence": "QGQLGESGGGLVQAGGSLRLSCAASGIIFTWYVMGWYRQAPGKERELVAAISASGASTYYADSVKGRFTISRDNAKNTVYLQMHSLNPEDPAVNYCNRYPTDGRTSYVTYYYWGQGTQVTVSS", "polyreactivity (PSR sort gate)": "high polyreactivity"}, {"sequence": "QVQLEESGGVLVQAGGSLRLTCAAAGSILAYNSMGWYREAPGKERELVAAISWTGRTYYADSVKGRFTISRDNEKNTVYLQMNSLIPEDTAVYYCNARGRQRSRGSQIYDYWGQGTQVTVSS", "polyreactivity (PSR sort gate)": "high polyreactivity"}, {"sequence": "QVQHVESGGGLVQAGGSLRLSCSASGITLPGSAIGWYRQAAGKVREFVAAISTSGGSTYYADSVKGRFTISRDYAKNTVYLQMNSLKPEDTAVYYCNARLVYYSYEEMDYWGQGTQVTVSS", "polyreactivity (PSR sort gate)": "low polyreactivity"}, {"sequence": "QVQLVESGGGLVQAGGSLRKSCAASGRIFGINAMGWSRQAPGNERELVAAITWGVGSTYYADSVKGRFTISRDNAKNTVYLQMNSLKPEDTAVYYCAKRRYYGYGGDYWGQGTQVTVSS", "polyreactivity (PSR sort gate)": "high polyreactivity"}, {"sequence": "QVQLVESGGGLVQAGGSLRLSCAASGRIFGLYAMGWYRQAPGKERELVAAITSSTGSTYYADSVKGRFTISRDNAKNTVYLQMNSLKPEDTAVYYCAARRYGRNWHYDYWGQGTQVTVSS", "polyreactivity (PSR sort gate)": "high polyreactivity"}, {"sequence": "QVQLVESGGGLVQAGGSLRLSCAASGSTDNNAMGWYRQAPGKERELVAAIRFRSGSTYYADSVNGRFTISRDNAKNTVYLQMNSLKPEDTAVYYCAAPGSPYGYWGQGTQVTVSS", "polyreactivity (PSR sort gate)": "high polyreactivity"}, {"sequence": "QVQLVESGGGLVQAGGSLRLSCAASGSIFRTYAMGWYRQAPGKERELVAAITSGGSTYYADSVKGRFTISRDNAKNTVYLQMNSLKPEDTAVYYCAAVRYYRYWYYWGQGTQVTVSS", "polyreactivity (PSR sort gate)": "high polyreactivity"}, {"sequence": "QVQLVEYGGGLVQAGGSLRLSCAASGIIFKVYAMGWYRQAPGKEMELVAAISWSGGTTYYADSVKWRFTISRDNAKNTVYLQMNSLKPEDTAVYYCNAVVRVRFRKNDYWGQGTQVTVSS", "polyreactivity (PSR sort gate)": "high polyreactivity"}, {"sequence": "QVQLVESGGGLVQAGGSLRLSCAASGITFGANAMGWYRQAPGKERELVAHITWSGGDTYYADSVKGRFTISRDNAKNTVYLQMNSLKPEDTAVYYCNALQPGLGSPLGEYDYWGQGTQVTVSS", "polyreactivity (PSR sort gate)": "low polyreactivity"}, {"sequence": "QVQLVESGGGLVQAGGSLRLSCAASGSTFRVYAMGWYRQATGKERELVAAIRWRGVTTYADSVKGRFTISRDNAKNTVYLQMNSLKPEDTAVYYCARDVNYPGSEGDYWGQGTQVTVSS", "polyreactivity (PSR sort gate)": "low polyreactivity"}, {"sequence": "QVQLVESGGGLVQAGGSLRLSCAASGFTFRYYAMGWSRQAAGKERELVATITGSGGSTYYADSVKGRFTISRDNAKNTVYLQMNSLKPEDTAVYYCNTVWYSDVRYTRFYYWGQGTQVTVSS", "polyreactivity (PSR sort gate)": "high polyreactivity"}, {"sequence": "QVQLVESGGGIVQAGGSLRLSWAASGSINYRNARGCYRQAPGKERELVAAISSDGSTNYADSVKGRFTISRDNAKNTVYLQMNRLKPEDTAVYSCASPWTQILDYWGKGTQVTVSS", "polyreactivity (PSR sort gate)": "low polyreactivity"}, {"sequence": "QVQLVESGGGLVQAGGSLRLSCAASGRIFYAYAMGWYRPAPGNERELVAAITISASSTYYADSVKGRFTISRDNAKNTVYLQMNSLKPEDTAVSYCAAAYRRPWWYSYRYGYWGQGTQVTVSS", "polyreactivity (PSR sort gate)": "high polyreactivity"}, {"sequence": "QVQLVESGGGLVQAGGSIRLSCAASGRTFIYNVMGWYRQAPGKERELVAAISSGGNTNYADSVKGRFTISRDNAKNTVYLQMNSLKPEDPAVYYCNARWPLGVSRGGMGYWGQGTQVTVSS", "polyreactivity (PSR sort gate)": "high polyreactivity"}, {"sequence": "QVQLVESGGGLVQAGGSLRLSCAASGSIFAPYAMGWYRQAPGKERELVAAISWSGDSTYYADSVKGRFTISRDNAKNTVYLQMNSLKPEDTAVSYCAAAGGFDYDYWGQATQVTVSS", "polyreactivity (PSR sort gate)": "low polyreactivity"}, {"sequence": "QVKLVESGGGLVQAGCSLRLTCAASGSTSDMKAMGWYRQAPGKERELVAAISYSGGSTYYADSVKGRFTMSRDNAKNTVYLQMNSLKPEDTAVYYCAKQVADRYDYWGQGTEVTVSS", "polyreactivity (PSR sort gate)": "low polyreactivity"}, {"sequence": "QVQLVDSGGGLVQEGGSLRLSCAASGLTFYSNAMGWYRQARGKERELVARISTGGSTYADSVKGRFTISRDNAKNTVYLQMNSLKPEVTAVYYCAAEYNLRTYWGDYWGQGTQVTVSS", "polyreactivity (PSR sort gate)": "low polyreactivity"}, {"sequence": "QVQLVESGGGLVQAGGSLRLSCAASGSTYDDNAMGWYRQAPRKERELVAGISTNGGSTSYADSVKGRFTISRDNAKNTVYLQMNSLYPEDTAVYYCATGLYVQFDYWGQGTQVTVSS", "polyreactivity (PSR sort gate)": "low polyreactivity"}, {"sequence": "QVQLVESGGGLGQAGGSLRLSSAASGGTFGSNTMGWYRQAPGKERELVAAITSGVSTYYADSVKGRFTISRDNAKNTVYLQMNSLKPEDTAVYYCAADTTQLQGVEGDYWGQGTQVTVSS", "polyreactivity (PSR sort gate)": "low polyreactivity"}, {"sequence": "QVQLVESGGGLVQAGGSLRLSCAAYGLTFPYYVMGWYRPAPGKERELVAAISSSGGSTYYADSVKGRFTISRDNAKNTVYLQMNSLKPEDTAVYYCAAVEIYLAYDLPYWSEMDYWGQGTQVTVSS", "polyreactivity (PSR sort gate)": "low polyreactivity"}, {"sequence": "QVQLVESGGGLVQAGGSLRLSCAASGRTFLVYVMGWYRQAPGKERELVASITYSGGSTYYADSVKGRFTISRDNAKNTVYLQMNSLKPEDTAVYYCAAAQGRQPYRARGLYYYWGQGTQVTVSS", "polyreactivity (PSR sort gate)": "high polyreactivity"}, {"sequence": "QVQLVESGGGLVEAGGSLRLSCAASGRTFFSNAMVWYRQAPGKERELVAAINRGGSTYYADSVKGRFTSSRDNAKNTVNLQMNSLKPEDTAVYYCAAGYWSKNSIHYYYWGQGTQVTVSS", "polyreactivity (PSR sort gate)": "high polyreactivity"}, {"sequence": "QVQLVDSGGGLVQAGGSLRLSCAASGRIFSENAMVWYRQSRGKERELVAAITANGGDTYYADSVKGRFTISRDNAKNTVYLQMNSLKPEDTAVYYCAAETGGLGGDYWGQGTQVTVSS", "polyreactivity (PSR sort gate)": "low polyreactivity"}, {"sequence": "QVQLVESGGGLVQAGGSLRLSCAASGYTIFSYGMGWYRQAPGKERELVAAISSGDRTNYADSVKGRFTISRDNAKNTVYLQMNSLKPEDTAVYYCNADRASSSVGYSDDFGHDSWGQGTQVTVSS", "polyreactivity (PSR sort gate)": "low polyreactivity"}, {"sequence": "QVQLVESGGGLVQAGGSLRLSCAASGRIFSYAMGWYRQAPGKEREFVAAIRWSGGRTYYADSVKGRFTISRDNAKNTVYLQMNSLKPEDTAVYYCARQGYTLYRTRYRYDYWGQGTQVTVSS", "polyreactivity (PSR sort gate)": "high polyreactivity"}, {"sequence": "QVQLVESGGGLVQAGGSLRLSCAASGFTFAGYAMGWYRQAPGKERELVAGIRSSGARTYYADSAKGRFTISRDNAKNTVYFKMNSLKPEDTADYYFAKTDGFYRGYGYWGQGTKVTVSS", "polyreactivity (PSR sort gate)": "low polyreactivity"}, {"sequence": "QVQLVESGGGLVQAGGSLRLSCAASGSTFAGYAMGWYRQAPGKERELVAAISRRGGSTYYADSVKGRFTISRDNAKNTVYLQMNSLKPEDTAVYYCNRDKYLRDPDYDYWGQGTQVTVSS", "polyreactivity (PSR sort gate)": "low polyreactivity"}, {"sequence": "QVQLVESGGGLVQAGGSLRLSCAASGSIFVNYAMGWYRQAPGKERELVAAITLRGGSTFYADSVKGRFTISRDNAKNTVYLQMNSLKPEDTAVYYCAASSLRYRAYKSLFDYWGQGTQVTVSS", "polyreactivity (PSR sort gate)": "low polyreactivity"}, {"sequence": "QVQLVESGGGLVQAGGSLRLSCAASGFTFRDNAMGWYRQAPGKERELVAAITRGGSTYYADSVKGRFTISRDNAKNTVYLQMNSLKPEDTAVYYCAKALYRREYSSGGYYRFDYWGQGTQVTVSS", "polyreactivity (PSR sort gate)": "high polyreactivity"}, {"sequence": "QVQLVESGGGLVQAGGSLRLSCAASGRIFRYYAMGWYRQAPGKERELVAAIDSVGSTYYADSVKGRFTISRDNAKNTVYLQMNSLKPEDTAVYYCNARVYTFPTRYDYWGQGTQVTVSS", "polyreactivity (PSR sort gate)": "high polyreactivity"}, {"sequence": "QVQLVQSGGGLVQAGASLRLSCAASGSTFWKYAMGWYRQAPGQERELVASIRSGGSTYYADSVKGRFTISRDNAKNTVYLQMNSLIPEDTAVYYCAAVTHGRYDWVQGTQVTVSS", "polyreactivity (PSR sort gate)": "high polyreactivity"}, {"sequence": "QVQLVESGGGLVQAGGSLRLSCAASGSTFYFYTMGWYRQAPGKERELVAAISQDGGSTYYADSVKGRFTISRDNAKNTVYLQMNSLKPEDTAVYYCAADKRGTVYLSSFWMDYWGQGTQVTVSS", "polyreactivity (PSR sort gate)": "low polyreactivity"}, {"sequence": "QVQLVESGGGLVQAGGSLRLSCAASGIIFWHYAMGMYRQAPGKERELVADISRRGGSTYYADSVKGRFTISRDNAKNTVYLQINSLKPEDNAVYYCAARYHPGGYDSWGQGTQVTVSS", "polyreactivity (PSR sort gate)": "low polyreactivity"}, {"sequence": "QVQLVESGGGLVQAGGSLRLSCAASGSTFRTNVMGWYRQAPGKEREVVAAITKRGSITYYADSVKGRFTISRDNAKNTVYFQMNTLKPEDTAVYYCAARKVAVRGYAYWGQGTQVTVSS", "polyreactivity (PSR sort gate)": "high polyreactivity"}, {"sequence": "QVQLVESGGGLVQAGGSLRLSCAASGSIFSWYAMGWYRQAPGKERELVAAITSDGGTNYADSVKGRFTISRDNAKNTVYLQMNRLKPEDTAVYYCAADYWYSWRRSHYAHRYGYWGQGTQVTVSS", "polyreactivity (PSR sort gate)": "low polyreactivity"}, {"sequence": "QVQLVESGGGLVQAGGSLRLSCAASGRIFAPYAMGWYTQAPGKERELVAAISFSGGSTHYADSVKGRFTISRDNAKNTVYLQMNSLKPEDTAVYYCAAGWRSRLYRFGYWGQGTQVTVSS", "polyreactivity (PSR sort gate)": "high polyreactivity"}, {"sequence": "QVQLVESGGGLVQAGGSLRLSCAASGSIFVLYAMGWYRQAPGKERELVAAISRGVGGTNYADSVKGRFTISRDNAKNTVYLQMNSLKPEDTAVYYCAAQTLRWSHYYYWGQGTQVTVSS", "polyreactivity (PSR sort gate)": "high polyreactivity"}]}]}
